# Laboratory results taken from publication PMC2756588.
# T1: Lsb3, P43603
# T1 sequence (P43603 385-451, looked up): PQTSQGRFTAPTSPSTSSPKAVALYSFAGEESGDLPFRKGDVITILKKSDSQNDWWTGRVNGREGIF
# T2: Cdc25, P04821
# T2 sequence (P04821 50-136, looked up): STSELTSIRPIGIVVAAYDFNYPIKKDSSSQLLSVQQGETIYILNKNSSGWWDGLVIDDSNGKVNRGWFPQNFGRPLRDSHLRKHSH
# T3: Bzz1-2, P38822
# T3 sequence (P38822 568-633, looked up): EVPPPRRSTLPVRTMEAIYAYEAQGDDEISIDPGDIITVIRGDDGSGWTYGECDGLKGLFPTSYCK
# T4: Hse1, P38753
# T4 sequence (P38753 208-285, looked up): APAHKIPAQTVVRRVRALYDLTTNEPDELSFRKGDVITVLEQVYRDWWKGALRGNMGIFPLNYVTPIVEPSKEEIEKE
# T5: Pex13, P80667
# T5 sequence (P80667 295-386, looked up): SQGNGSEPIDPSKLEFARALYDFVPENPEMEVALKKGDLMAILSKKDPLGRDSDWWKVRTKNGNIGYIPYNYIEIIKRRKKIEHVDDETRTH
# T6: Boi2, P39969
# T6 sequence (P39969 32-116, looked up): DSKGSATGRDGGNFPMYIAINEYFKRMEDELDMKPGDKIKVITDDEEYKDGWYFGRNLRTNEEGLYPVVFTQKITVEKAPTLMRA
# T7: Bud14, P27637
# T7 sequence (P27637 247-328, looked up): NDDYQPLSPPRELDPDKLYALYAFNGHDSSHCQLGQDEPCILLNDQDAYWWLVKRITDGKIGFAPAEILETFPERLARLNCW
# T8: Hof1, Q05080
# T8 sequence (Q05080 590-669, looked up): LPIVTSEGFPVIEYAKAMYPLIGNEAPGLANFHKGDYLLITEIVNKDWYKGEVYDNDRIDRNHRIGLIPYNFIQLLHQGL
# T9: Abp1, P15891
# T9 sequence (P15891 535-592, looked up): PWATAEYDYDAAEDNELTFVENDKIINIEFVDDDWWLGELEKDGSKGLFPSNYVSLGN
# T10: Sla1-3, P32790
# T10 sequence (P32790 344-424, looked up): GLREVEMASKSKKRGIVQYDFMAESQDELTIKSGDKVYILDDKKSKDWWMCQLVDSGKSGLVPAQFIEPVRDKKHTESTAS
# T11: Sla1-2, P32790
# T11 sequence (P32790 60-140, looked up): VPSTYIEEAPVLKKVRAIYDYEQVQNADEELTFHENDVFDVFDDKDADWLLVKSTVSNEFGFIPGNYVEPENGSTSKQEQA
# T12: Bbc1, P47068
# T12 sequence (P47068 1-78, looked up): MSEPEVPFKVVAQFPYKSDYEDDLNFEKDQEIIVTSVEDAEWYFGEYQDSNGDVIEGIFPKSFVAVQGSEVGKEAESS
# T13: Fus1, P11710
# T13 sequence (P11710 432-512, looked up): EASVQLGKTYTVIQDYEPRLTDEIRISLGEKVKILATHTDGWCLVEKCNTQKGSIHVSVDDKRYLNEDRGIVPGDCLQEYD
# T14: Myo5, Q04439
# T14 sequence (Q04439 1072-1160, looked up): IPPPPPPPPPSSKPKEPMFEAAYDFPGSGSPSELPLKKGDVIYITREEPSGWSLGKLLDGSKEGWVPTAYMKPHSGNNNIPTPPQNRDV
# T15: Boi1, P38041
# T15 sequence (P38041 1-86, looked up): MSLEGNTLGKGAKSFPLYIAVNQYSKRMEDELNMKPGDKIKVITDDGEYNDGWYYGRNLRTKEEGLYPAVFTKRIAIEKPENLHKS
# T16: Pin3, Q06449
# T16 sequence (Q06449 53-122, looked up): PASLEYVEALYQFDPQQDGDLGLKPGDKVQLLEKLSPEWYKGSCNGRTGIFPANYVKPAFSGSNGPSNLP
# T17: Lsb1, P53281
# T17 sequence (P53281 45-122, looked up): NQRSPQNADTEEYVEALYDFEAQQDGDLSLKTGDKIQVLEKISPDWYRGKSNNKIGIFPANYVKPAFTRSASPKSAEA
# T18: Cyk3, Q07533
# T18 sequence (Q07533 1-83, looked up): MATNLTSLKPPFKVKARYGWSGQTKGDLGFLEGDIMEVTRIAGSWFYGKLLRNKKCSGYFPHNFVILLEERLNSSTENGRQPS
# T19: Lsb4, P32793
# T19 sequence (P32793 402-468, looked up): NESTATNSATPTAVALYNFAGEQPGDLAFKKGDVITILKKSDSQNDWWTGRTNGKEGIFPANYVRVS
# T20: Bzz1-1, P38822
# T20 sequence (P38822 478-572, looked up): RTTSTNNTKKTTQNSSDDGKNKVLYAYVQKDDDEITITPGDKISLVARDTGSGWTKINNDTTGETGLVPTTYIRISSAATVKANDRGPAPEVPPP
# T21: Nbp2, Q12163
# T21 sequence (Q12163 103-180, looked up): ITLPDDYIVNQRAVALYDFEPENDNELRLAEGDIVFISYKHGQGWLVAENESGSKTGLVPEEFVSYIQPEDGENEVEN
# Molecular target: T1, Lsb3, P43603
# Test: SPOT array
# Details: median of control spots 406
row,SPOT intensity,Binder
1,0,PPLPRAPPVPPATFE
2,0,PSPSSSPPPIPKTAN
3,4,VPPVPLPFGIPPFPM

# Molecular target: T2, Cdc25, P04821
# Test: SPOT array
# Details: median of control spots 969
row,SPOT intensity,Binder
1,1,PPLPRAPPVPPATFE
2,1,PSPSSSPPPIPKTAN
3,8,VPPVPLPFGIPPFPM

# Molecular target: Rvs167, P39743
# Test: SPOT array
# Details: median of control spots 2707
# Sequence of Rvs167, P39743 (P39743 419-482): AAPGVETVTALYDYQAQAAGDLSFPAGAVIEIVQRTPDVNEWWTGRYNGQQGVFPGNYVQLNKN
row,SPOT intensity,Binder
1,0,PPLPRAPPVPPATFE
2,0,PSPSSSPPPIPKTAN
3,0,VPPVPLPFGIPPFPM

# Molecular target: T3, Bzz1-2, P38822
# Test: SPOT array
# Details: median of control spots 4538
row,SPOT intensity,Binder
1,4,PPLPRAPPVPPATFE
2,3,PSPSSSPPPIPKTAN
3,0,VPPVPLPFGIPPFPM

# Molecular target: T4, Hse1, P38753
# Test: SPOT array
# Details: median of control spots 1727
row,SPOT intensity,Binder
1,0,PPLPRAPPVPPATFE
2,0,PSPSSSPPPIPKTAN
3,0,VPPVPLPFGIPPFPM

# Molecular target: T5, Pex13, P80667
# Test: SPOT array
# Details: median of control spots 1341
row,SPOT intensity,Binder
1,14,PPLPRAPPVPPATFE
2,0,PSPSSSPPPIPKTAN
3,129,VPPVPLPFGIPPFPM

# Molecular target: T6, Boi2, P39969
# Test: SPOT array
# Details: median of control spots 1161
row,SPOT intensity,Binder
1,0,PPLPRAPPVPPATFE
2,1,PSPSSSPPPIPKTAN
3,1,VPPVPLPFGIPPFPM

# Molecular target: T7, Bud14, P27637
# Test: SPOT array
# Details: median of control spots 956
row,SPOT intensity,Binder
1,0,PPLPRAPPVPPATFE
2,0,PSPSSSPPPIPKTAN
3,2,VPPVPLPFGIPPFPM

# Molecular target: T8, Hof1, Q05080
# Test: SPOT array
# Details: median of control spots 4086
row,SPOT intensity,Binder
1,183,PPLPRAPPVPPATFE
2,0,PSPSSSPPPIPKTAN
3,84,VPPVPLPFGIPPFPM

# Molecular target: GST
# Test: SPOT array
# Details: median of control spots 978
row,SPOT intensity,Binder
1,0,PPLPRAPPVPPATFE
2,1,PSPSSSPPPIPKTAN
3,0,VPPVPLPFGIPPFPM

# Molecular target: T9, Abp1, P15891
# Test: SPOT array
# Details: median of control spots 935
row,SPOT intensity,Binder
1,27,PPLPRAPPVPPATFE
2,0,PSPSSSPPPIPKTAN
3,25,VPPVPLPFGIPPFPM

# Molecular target: Myo3, P36006
# Test: SPOT array
# Details: median of control spots 468
row,SPOT intensity,Binder
1,269,PPLPRAPPVPPATFE
2,413,PSPSSSPPPIPKTAN
3,341,VPPVPLPFGIPPFPM

# Molecular target: T10, Sla1-3, P32790
# Test: SPOT array
# Details: median of control spots 5475
row,SPOT intensity,Binder
1,1,PPLPRAPPVPPATFE
2,0,PSPSSSPPPIPKTAN
3,0,VPPVPLPFGIPPFPM

# Molecular target: T11, Sla1-2, P32790
# Test: SPOT array
# Details: median of control spots 712
row,SPOT intensity,Binder
1,1,PPLPRAPPVPPATFE
2,0,PSPSSSPPPIPKTAN
3,1,VPPVPLPFGIPPFPM

# Molecular target: T12, Bbc1, P47068
# Test: SPOT array
# Details: median of control spots 796
row,SPOT intensity,Binder
1,3,PPLPRAPPVPPATFE
2,0,PSPSSSPPPIPKTAN
3,3,VPPVPLPFGIPPFPM

# Molecular target: T13, Fus1, P11710
# Test: SPOT array
# Details: median of control spots 1200
row,SPOT intensity,Binder
1,0,PPLPRAPPVPPATFE
2,0,PSPSSSPPPIPKTAN
3,0,VPPVPLPFGIPPFPM

# Molecular target: Bem1-1, P29366
# Test: SPOT array
# Details: median of control spots 4282
# Sequence of Bem1-1, P29366 (P29366 55-141): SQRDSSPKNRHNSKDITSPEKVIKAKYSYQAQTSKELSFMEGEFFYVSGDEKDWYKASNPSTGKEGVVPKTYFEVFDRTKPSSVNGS
row,SPOT intensity,Binder
1,2,PPLPRAPPVPPATFE
2,1,PSPSSSPPPIPKTAN
3,0,VPPVPLPFGIPPFPM

# Molecular target: Bem1-2, P29366
# Test: SPOT array
# Details: median of control spots 4347
# Sequence of Bem1-2, P29366 (P29366 139-227): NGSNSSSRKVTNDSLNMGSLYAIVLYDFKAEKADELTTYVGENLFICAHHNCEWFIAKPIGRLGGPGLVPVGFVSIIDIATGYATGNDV
row,SPOT intensity,Binder
1,59,PPLPRAPPVPPATFE
2,0,PSPSSSPPPIPKTAN
3,2,VPPVPLPFGIPPFPM

# Molecular target: T14, Myo5, Q04439
# Test: SPOT array
# Details: median of control spots 471
row,SPOT intensity,Binder
1,137,PPLPRAPPVPPATFE
2,300,PSPSSSPPPIPKTAN
3,207,VPPVPLPFGIPPFPM

# Molecular target: T15, Boi1, P38041
# Test: SPOT array
# Details: median of control spots 1162
row,SPOT intensity,Binder
1,1,PPLPRAPPVPPATFE
2,1,PSPSSSPPPIPKTAN
3,0,VPPVPLPFGIPPFPM

# Molecular target: T16, Pin3, Q06449
# Test: SPOT array
# Details: median of control spots 2171
row,SPOT intensity,Binder
1,0,PPLPRAPPVPPATFE
2,0,PSPSSSPPPIPKTAN
3,63,VPPVPLPFGIPPFPM

# Molecular target: Sho1, P40073
# Test: SPOT array
# Details: median of control spots 1148
# Sequence of Sho1, P40073 (P40073 287-367): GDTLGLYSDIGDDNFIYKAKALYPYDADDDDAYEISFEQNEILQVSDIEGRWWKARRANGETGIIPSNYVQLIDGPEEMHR
row,SPOT intensity,Binder
1,9,PPLPRAPPVPPATFE
2,0,PSPSSSPPPIPKTAN
3,6,VPPVPLPFGIPPFPM

# Molecular target: T17, Lsb1, P53281
# Test: SPOT array
# Details: median of control spots 388
row,SPOT intensity,Binder
1,7,PPLPRAPPVPPATFE
2,0,PSPSSSPPPIPKTAN
3,6,VPPVPLPFGIPPFPM

# Molecular target: T18, Cyk3, Q07533
# Test: SPOT array
# Details: median of control spots 1451
row,SPOT intensity,Binder
1,0,PPLPRAPPVPPATFE
2,0,PSPSSSPPPIPKTAN
3,2,VPPVPLPFGIPPFPM

# Molecular target: T19, Lsb4, P32793
# Test: SPOT array
# Details: median of control spots 397
row,SPOT intensity,Binder
1,0,PPLPRAPPVPPATFE
2,0,PSPSSSPPPIPKTAN
3,16,VPPVPLPFGIPPFPM

# Molecular target: T20, Bzz1-1, P38822
# Test: SPOT array
# Details: median of control spots 4446
row,SPOT intensity,Binder
1,2,PPLPRAPPVPPATFE
2,1,PSPSSSPPPIPKTAN
3,2,VPPVPLPFGIPPFPM

# Molecular target: T21, Nbp2, Q12163
# Test: SPOT array
# Details: median of control spots 357
row,SPOT intensity,Binder
1,2,PPLPRAPPVPPATFE
2,0,PSPSSSPPPIPKTAN
3,1,VPPVPLPFGIPPFPM
